# Assay results taken from the Human Domainome abundance scans (Beltran et al. 2025).
# ± gives the uncertainty stated by the source.
# B1: POU domain, class 4, transcription factor 3, residues 185 to 256; numbered along this chain, Q15319 (parent)
# chain: RELEAFAERFKQRRIKLGVTQADVGAALANLKIPGVGSLSQSTICRFESLTLSHNNMIALKPVLQAWLEEAE
# B2: Apoptosis-associated speck-like protein containing a CARD, residues 114 to 194; numbered along this chain, Q9ULZ3 (parent)
# chain: FIDQHRAALIARVTNVEWLLDALYGKVLTDEQYQAVRAEPTNPSKMRKLFSFTPAWNWTCKDLLLQALRESQSYLVEDLER
# Variants of: B1
# Experiment: abundance fitness (aPCA) (normalised: wild type 0, dead -1); higher = more abundant; growth selection in yeast, the domain comes from the species named
# Details: Homo sapiens
row,Variant,abundance fitness
1,RELEAFAERFKQRRIKLGVTQADVGAALANLKIPGVGSLSQSTICRFESLTLSHNNMIALKPVLQAWLEESE [A71S],-0.108 ± 0.039
2,RELEAFAERFKQRRIKLGVTQADVGAALANLKIPGVGSLSQSTICRFESLTLSHNNMIALKPVLQAWLEEYE [A71Y],-0.064 ± 0.041
3,RELEAFAERFKQRRIKLGVTQADVGAALANLKIPGVGSLSQSTICRFESLTLSHNNMIALKPVLQAWLEEWE [A71W],-0.281 ± 0.056
4,RELEAFAERFKQRRIKLGVTQADVGAALANLKIPGVGSLSQSTICRFESLTLSHNNMIALKPVLQAWLEETE [A71T],-0.085 ± 0.062
5,RELEAFAERFKQRRIKLGVTQADVGAALANLKIPGVGSLSQSTICRFESLTLSHNNMIALKPVLQAWLEEAD [E72D],-0.111 ± 0.042
6,RELEAFAERFKQRRIKLGVTQADVGAALANLKIPGVGSLSQSTICRFESLTLSHNNMIALKPVLQAWLEEAG [E72G],-0.278 ± 0.037
7,RELEAFAERFKQRRIKLGVTQADVGAALANLKIPGVGSLSQSTICRFESLTLSHNNMIALKPVLQAWLEEAQ [E72Q],-0.263 ± 0.042
8,RELEAFAERFKQRRIKLGVTQADVGAALANLKIPGVGSLSQSTICRFESLTLSHNNMIALKPVLQAWLEEAW [E72W],-0.325 ± 0.037
9,RELEAFAERFKQRRIKLGVTQADVGAALANLKIPGVGSLSQSTICRFESLTLSHNNMIALKPVLQAWLEEAH [E72H],-0.378 ± 0.053
10,RELEAFAERFKQRRIKLGVTQADVGAALANLKIPGVGSLSQSTICRFESLTLSHNNMIALKPVLQAWLEEAN [E72N],-0.192 ± 0.057
11,RELEAFAERFKQRRIKLGVTQADVGAALANLKIPGVGSLSQSTICRFESLTLSHNNMIALKPVLQAWLEEAK [E72K],-0.384 ± 0.052
12,RELEAFAERFKQRRIKLGVTQADVGAALANLKIPGVGSLSQSTICRFESLTLSHNNMIALKPVLQAWLEEAS [E72S],-0.153 ± 0.028
13,RELEAFAERFKQRRIKLGVTQADVGAALANLKIPGVGSLSQSTICRFESLTLSHNNMIALKPVLQAWLEEAF [E72F],-0.63 ± 0.043
14,RELEAFAERFKQRRIKLGVTQADVGAALANLKIPGVGSLSQSTICRFESLTLSHNNMIALKPVLQAWLEEAA [E72A],-0.31 ± 0.03
15,RELEAFAERFKQRRIKLGVTQADVGAALANLKIPGVGSLSQSTICRFESLTLSHNNMIALKPVLQAWLEEAR [E72R],-0.526 ± 0.035
16,RELEAFAERFKQRRIKLGVTQADVGAALANLKIPGVGSLSQSTICRFESLTLSHNNMIALKPVLQAWLEEAY [E72Y],-0.544 ± 0.054
17,RELEAFAERFKQRRIKLGVTQADVGAALANLKIPGVGSLSQSTICRFESLTLSHNNMIALKPVLQAWLEEAV [E72V],-0.265 ± 0.025
18,RELEAFAERFKQRRIKLGVTQADVGAALANLKIPGVGSLSQSTICRFESLTLSHNNMIALKPVLQAWLEEAT [E72T],-0.219 ± 0.043
19,RELEAFAERFKQRRIKLGVTQADVGAALANLKIPGVGSLSQSTICRFESLTLSHNNMIALKPVLQAWLEEAC [E72C],-0.175 ± 0.051
20,RELEAFAERFKQRRIKLGVTQADVGAALANLKIPGVGSLSQSTICRFESLTLSHNNMIALKPVLQAWLEEAM [E72M],-0.36 ± 0.038
21,RELEAFAERFKQRRIKLGVTQADVGAALANLKIPGVGSLSQSTICRFESLTLSHNNMIALKPVLQAWLEEAL [E72L],-0.363 ± 0.024

# Variants of: B2
# Experiment: as above
# Details: Homo sapiens
row,Variant,abundance fitness
1,FWDQHRAALIARVTNVEWLLDALYGKVLTDEQYQAVRAEPTNPSKMRKLFSFTPAWNWTCKDLLLQALRESQSYLVEDLER [I2W],-0.619 ± 0.43
2,FICQHRAALIARVTNVEWLLDALYGKVLTDEQYQAVRAEPTNPSKMRKLFSFTPAWNWTCKDLLLQALRESQSYLVEDLER [D3C],-0.822 ± 0.23
3,FIAQHRAALIARVTNVEWLLDALYGKVLTDEQYQAVRAEPTNPSKMRKLFSFTPAWNWTCKDLLLQALRESQSYLVEDLER [D3A],-0.777 ± 0.12
4,FIEQHRAALIARVTNVEWLLDALYGKVLTDEQYQAVRAEPTNPSKMRKLFSFTPAWNWTCKDLLLQALRESQSYLVEDLER [D3E],-0.387 ± 0.097
5,FIFQHRAALIARVTNVEWLLDALYGKVLTDEQYQAVRAEPTNPSKMRKLFSFTPAWNWTCKDLLLQALRESQSYLVEDLER [D3F],-0.749 ± 0.38
6,EIDQHRAALIARVTNVEWLLDALYGKVLTDEQYQAVRAEPTNPSKMRKLFSFTPAWNWTCKDLLLQALRESQSYLVEDLER [F1E],-0.745 ± 0.27
7,GIDQHRAALIARVTNVEWLLDALYGKVLTDEQYQAVRAEPTNPSKMRKLFSFTPAWNWTCKDLLLQALRESQSYLVEDLER [F1G],-0.968 ± 0.25
8,YIDQHRAALIARVTNVEWLLDALYGKVLTDEQYQAVRAEPTNPSKMRKLFSFTPAWNWTCKDLLLQALRESQSYLVEDLER [F1Y],-1 ± 0.43
9,VIDQHRAALIARVTNVEWLLDALYGKVLTDEQYQAVRAEPTNPSKMRKLFSFTPAWNWTCKDLLLQALRESQSYLVEDLER [F1V],-0.908 ± 0.15
10,MIDQHRAALIARVTNVEWLLDALYGKVLTDEQYQAVRAEPTNPSKMRKLFSFTPAWNWTCKDLLLQALRESQSYLVEDLER [F1M],-0.661 ± 0.27
11,SIDQHRAALIARVTNVEWLLDALYGKVLTDEQYQAVRAEPTNPSKMRKLFSFTPAWNWTCKDLLLQALRESQSYLVEDLER [F1S],-0.385 ± 0.21
12,CIDQHRAALIARVTNVEWLLDALYGKVLTDEQYQAVRAEPTNPSKMRKLFSFTPAWNWTCKDLLLQALRESQSYLVEDLER [F1C],-1.04 ± 0.38
13,DIDQHRAALIARVTNVEWLLDALYGKVLTDEQYQAVRAEPTNPSKMRKLFSFTPAWNWTCKDLLLQALRESQSYLVEDLER [F1D],-0.685 ± 0.28
14,HIDQHRAALIARVTNVEWLLDALYGKVLTDEQYQAVRAEPTNPSKMRKLFSFTPAWNWTCKDLLLQALRESQSYLVEDLER [F1H],-0.375 ± 0.41
15,LIDQHRAALIARVTNVEWLLDALYGKVLTDEQYQAVRAEPTNPSKMRKLFSFTPAWNWTCKDLLLQALRESQSYLVEDLER [F1L],-0.809 ± 0.2
16,RIDQHRAALIARVTNVEWLLDALYGKVLTDEQYQAVRAEPTNPSKMRKLFSFTPAWNWTCKDLLLQALRESQSYLVEDLER [F1R],-0.498 ± 0.26
